Paper PMC5473643, “A semisynthetic Atg3 reveals that acetylation promotes Atg3 membrane binding and Atg8 lipidation” (Nature Communications, 2017)
Numbering of substitutions follows the chain as printed.

Columns and labels:
Conditions in all cases: both partners purified
[1] = target: T1, semi-synthetic Atg3 K19ac-K48ac (Saccharomyces cerevisiae, UniProt P40344 1-310, Gln27 mutated to Cys27 | S54C, acetyl-lysine at K19 and K48); assay: MST; Monolith NT.115 (20% LED, 20% MST power); Atg8 labelled with Dye NT-647 NHS, Atg3 at different concentrations; 50 mM Tris-HCl pH 7.4, 150 mM NaCl, 10 mM MgCl2, 0.05% Tween-20; apparent KD, mean of three independent experiments
T1 construct: Atg3 of yeast Saccharomyces cerevisiae, Atg3(1-310), 310 amino acids, with Gln27 and Ser54 mutated to Cys for ligation; also called K19/K48-diacetylated Atg3; 2ac
T1 sequence (looked up): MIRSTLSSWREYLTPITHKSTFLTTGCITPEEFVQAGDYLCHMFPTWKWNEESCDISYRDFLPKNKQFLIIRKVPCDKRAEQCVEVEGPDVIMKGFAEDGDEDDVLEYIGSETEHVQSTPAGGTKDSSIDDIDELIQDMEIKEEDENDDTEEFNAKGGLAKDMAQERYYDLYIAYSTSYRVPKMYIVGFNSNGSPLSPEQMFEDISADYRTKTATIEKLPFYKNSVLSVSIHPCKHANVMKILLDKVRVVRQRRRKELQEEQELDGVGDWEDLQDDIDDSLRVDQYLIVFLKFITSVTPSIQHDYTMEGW

[2] = target: T2, WT Atg3 (bacterially expressed and purified) (Saccharomyces cerevisiae, UniProt P40344 1-310); assay: as above
T2 construct: Atg3, E2-like enzyme of yeast Saccharomyces cerevisiae (310 amino acids); 'the region coding WT Atg3' inserted into pGEX-6P-1; GST excised with PreScission protease; residues of the vector may remain at the N-terminus (surmised); also called Atg3 WT; E. coli expressed WT Atg3; source: E. coli BL21 (DE3), purified (glutathione-Sepharose 4B, PreScission protease, Mono Q, Superdex 200)
T2 sequence (looked up): T1 sequence (looked up) with C27Q, C54S

[3] = target: T1, semi-synthetic Atg3 K19ac-K48ac; assay: SPR; Biacore T200, 25 °C; Atg3 immobilised by amine coupling on CM5 chip (400 RU); Atg8 injected at 30 μl/min up to 3,200 nM; 10 mM phosphate buffer, 2.7 mM KCl, 137 mM NaCl, 0.05% surfactant P20, pH 7.4
[4] = target: T2, WT Atg3 (bacterially expressed and …); assay: as above

B1: Atg8 (bacterially expressed and purified) (natural protein, yeast, UniProt P38182 1-117, looked up)
chain: MKSTFKSEYPFEKRKAESERIADRFKNRIPVICEKAEKSDIPEIDKRKYLVPADLTVGQFVYVIRKRIMLPPEKAIFIFVNDTLPPTAALMSAIYQEHKDKDGFLYVTYSGENTFGR
notes: Atg8 of yeast; 'the region coding ; Atg8' inserted into pGEX-6P-1; In the MST experiment this Atg8 was labelled on primary amines with Dye NT-647 NHS; also called recombinant Atg8; purified Atg8; source: E. coli BL21 (DE3), purified (glutathione-Sepharose 4B, PreScission protease, Mono Q, Superdex 200)
In the case of B1, the Kd [1] is reported as 490 ± 80 nM, the Kd [2] is reported as 520 ± 70 nM and the Kd [3] is reported as 650 ± 70 nM. The Kd [4] was 730 ± 50 nM.
